Earlier results as cited in article PMC3361719.

Molecular target: p67phox SH3 (Homo sapiens) (UniProt P19878)
UniProt P19878, sequence (P19878 457-516): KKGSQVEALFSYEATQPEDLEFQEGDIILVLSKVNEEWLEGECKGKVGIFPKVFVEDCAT

Kd: 20 nM
Substance: p47phox PRR and 368-390 (from UniProt P14598)
